From article PMC4896102, “Biosynthesis of the polymeric gel-forming mucin MUC5B” (American Journal of Physiology - Lung Cellular and …, 2016)

Molecular target: the molecule itself
Experiment: SEC-MALS; SEC-MALLS of purified CT5B, performed as described in ref. 18; light scattering and refractive index

B1: recombinant MUC5B COOH-terminus (CT5B; D4-B-C-CK) (domain or fragment, human, UniProt Q9HC84 4955-5762, looked up)
chain: GEVIYNKTDRAGCHFYAVCNQHCDIDRFQGACPTSPPPVSSAPLSSPSPAPGCDNAIPLRQVNETWTLENCTVARCVGDNRVVLLDPKPVANVTCVNKHLPIKVSDPSQPCDFHYECECICSMWGGSHYSTFDGTSYTFRGNCTYVLMREIHARFGNLSLYLDNHYCTASATAAAARCPRALSIHYKSMDIVLTVTMVHGKEEGLILFDQIPVSSGFSKNGVLVSVLGTTTMRVDIPALGVSVTFNGQVFQARLPYSLFHNNTEGQCGTCTNNQRDDCLQRDGTTAASCKDMAKTWLVPDSRKDGCWAPTGTPPTASPAAPVSSTPTPTPCPPQPLCDLMLSQVFAECHNLVPPGPFFNACISDHCRGRLEVPCQSLEAYAELCRARGVCSDWRGATGGLCDLTCPPTKVYKPCGPIQPATCNSRNQSPQLEGMAEGCFCPEDQILFNAHMGICVQACPCVGPDGFPKFPGERWVSNCQSCVCDEGSVSVQCKPLPCDAQGQPPPCNRPGFVTVTRPRAENPCCPETVCVCNTTTCPQSLPVCPPGQESICTQEEGDCCPTFRCRPQLCSYNGTFYGVGATFPGALPCHMCTCLSGDTQDPTVQCQEDACNNTTCPQGFEYKRVAGQCCGECVQTACLTPDGQPVQLNETWVNSHVDNCTVYLCEAEGGVHLLTPQPASCPDVSSCRGSLRKTGCCYSCEEDSCQVRINTTILWHQGCETEVNITFCEGSCPGASKYSAEAQAMQHQCTCCQERRVHEETVPLHCPNGSAILHTYTHVDECGCTPFCVPAPMAPPHTRGFPAQEATAV
modifications: N-glycans (removed by PNGase F; positions not stated)
notes: Present as a mixture of monomers and disulfide-stabilised dimers; the proportions varied between preparations; also called MUC5B COOH-terminal construct; COOH-terminal region of MUC5B
stoichiometry N: 2
